Measured values taken from publication PMC7494816, “Stoichiometry of Rtt109 complexes with Vps75 and histones H3-H4” (Life Science Alliance, 2020).
Each block holds one binder with its values, some of them ahead of it.

Experiments:
[1] = biological target: the molecule itself; assay: AUC; sedimentation velocity, van Holde–Weischet analysis; 7.5 μM Vps75 with 0, 0.5 and 1.0 equivalent of Rtt109; 20 mM Tris pH 7.5, 150 mM NaCl, 0.5 mM TCEP, 20°C
[2] = biological target: the molecule itself; assay: AUC; sedimentation velocity, van Holde–Weischet analysis; 7.5 μM Vps75 with 0, 0.5 and 1.0 equivalent of Rtt109; 20 mM Tris pH 7.5, 300 mM NaCl, 0.5 mM TCEP, 20°C
[3] = biological target: T1, Xenopus laevis histones H3-H4 (wild type), refolded (Xenopus laevis, UniProt P84233 1-136; P62799 1-103); assay: AUC; sedimentation velocity; 0.5 or 1 equivalent of H3-H4 or H3DM-H4 titrated against Vps75–Rtt109 reconstituted at 2:2 or 2:1 (relative to 7.5 μM Vps75), with 2:2 mixes of Vps75 and histones for reference; 20 mM Tris pH 7.5, 150 mM NaCl, 0.5 mM TCEP, 20°C; conditions: both partners purified
T1 construct: histone H3, Xenopus laevis, wild type; histone H4, Xenopus laevis; One H3-H4 dimer is the unit used for concentrations and equivalents; it can form the (H3-H4)2 tetramer; also called (H3-H4)2 tetramer; H3-H4 dimer; source: bought unfolded: the Histone Source at Colorado State University

[4] = biological target: the molecule itself; assay: SEC-MALS; anion exchange peaks P1, P2, P3 of co-expressed, co-purified Vps75–Rtt109, 20 μM; Superdex 200 Increase 10/300 GL; 20 mM Tris–HCl pH 7.5, 300 mM NaCl, 0.5 mM TCEP

- binding result [3]: binds
B1: Vps75 (Saccharomyces cerevisiae), individually expressed and purified (natural protein, UniProt P53853 1-264, looked up)
chain: MMSDQENENEHAKAFLGLAKCEEEVDAIEREVELYRLNKMKPVYEKRDAYIDEIAEFWKIVLSQHVSFANYIRASDFKYIDTIDKIKVEWLALESEMYDTRDFSITFHFHGIEGDFKEQQVTKVFQIKKGKDDQEDGILTSEPVPIEWPQSYDSINPDLIKDKRSPEGKKKYRQGMKTIFGWFRWTGLKPGKEFPHGDSLASLFSEEIYPFCVKYYAEAQRDLEDEEGESGLSADGDSEDDDGSLGEVDLPLSDEEPSSKKRKV
notes: Vps75, histone chaperone, Saccharomyces cerevisiae; also called Vps75 dimer; Vps75 tetramer; source: individually expressed and purified as previously described (Park et al, 2008)
- stoichiometry N [1]: 4 chains of Vps75 (tetramer)
- stoichiometry N [2]: 2 chains of Vps75 (dimer)

B2: Vps75 co-expressed with his–Rtt109 from pRSFDuet-1 (natural protein, Saccharomyces cerevisiae, UniProt P53853 1-264, looked up)
chain: B1 chain
notes: Vps75, Saccharomyces cerevisiae; multiple cloning site 2 of pRSFDuet-1; source: E. coli Rosetta (DE3) pLysS, co-expressed with his–Rtt109, in lysate; co-purified (HisTrap, MonoQ)
- stoichiometry N [4]: 2 chains of Vps75 (dimer)
